Laboratory results: patent US8759482B2, “Kinetically efficient substrate for lipoic acid ligase” (Massachusetts Institute of Technology, priority 2009, dated 2014)

Substrate: CC[C@H](C)[C@H](NC(=O)[C@H](CCC(=O)O)NC(=O)[C@H](Cc1ccccc1)NC(=O)CN)C(=O)N[C@@H](CC(=O)O)C(=O)N[C@@H](CCCCN)C(=O)N[C@H](C(=O)N[C@@H](Cc1c[nH]c2ccccc12)C(=O)N[C@@H](Cc1ccc(O)cc1)C(=O)N[C@@H](CC(=O)O)C(=O)N[C@@H](CC(C)C)C(=O)N[C@@H](CC(=O)O)C(=O)N[C@@H](C)C(=O)O)C(C)C
Experiment: Lp1A-catalyzed lipoylation kinetics (kcat, Km) by HPLC
Assay type: biochemical, Escherichia coli
Conditions: other: synthetic LAP2 peptide, 50 nM Lp1A, 750 μM lipoic acid, 30° C.
Description: Various concentrations of synthetic LAP2 peptide (not a fusion protein) were lipoylated with 50 nM Lp1A, 750 μM lipoic acid, and 3 mM ATP, and initial reaction rates were measured by HPLC. […] Measurements were performed in triplicate.
Using HPLC to quantify product formation, the kcat and Km values were measured for Lp1A-catalyzed lipoylation of a synthetic LAP2 peptide (without an attached fusion protein).
To measure the kcat and Km values for lipoylation, 50 nM Lp1A was combined with 750 μM lipoic acid, 2 mM ATP, and 5 mM magnesium acetate in DPBS. Varying concentrations of LAP2 (5.5, 11, 22, 44, 88, 176, or 352 μM) were used; 60 μL aliquots were removed from the 30° C. reactions at 5 min intervals, up to 20 min, and quenched with 180 mM EDTA (final concentration). HPLC was used to determine the amount of product in each aliquot, and kinetic parameters were extracted using the Michaelis-Menten equation as described previously.^13,28

B1: Escherichia coli lipoic acid ligase (Lp1A) (Escherichia coli K-12) (protein)
chain: MSTLRLLISDSYDPWFNLAVEECIFRQMPATQRVLFLWRNADTVVIGRAQNPWKECNTRRMEEDNVRLARRSSGGGAVFHDLGNTCFTFMAGKPEYDKTISTSIVLNALNALGVSAEASGRNDLVVKTVEGDRKVSGSAYRETKDRGFHHGTLLLNADLSRLANYLNPDKKKLAAKGITSVRSRVTNLTELLPGITHEQVCEAITEAFFAHYGERVEAEIISPNKTPDLPNFAETFARQSSWEWNFGQAPAFSHLLDERFTWGGVELHFDVEKGHITRAQVFTDSLNPAPLEALAGRLQGCLYRADMLQQECEALLVDFPEQEKELRELSAWMAGAVR
Km: 13.32 ± 1.78 µM
kcat: 0.22 s⁻¹
kcat/Km: 16500 M⁻¹ s⁻¹
